Measured values published in patent publication US20200239535A1.

Molecular target: cell surface of 293 AAV cells (the filing names αvβ3 and αvβ5 integrins as the receptors of RGD4C)
Assay: 200000 TU/cell incubated 1 h on ice with 293AAV cells; unbound particles recovered from the medium, titrated on TG1 E. coli and counted as colonies; value relative to its control

Substance: M13.PAAV vector (non-targeted phagemid/AAV particle lacking RGD4C) (from UniProt P69168 19-424)
- binding efficiency (percentage of vectors bound to the cell surface): 7.1%

Substance: RGD.PAAV vector (RGD4C-targeted phagemid/AAV particle displaying the RGD4C peptide on the pIII minor coat protein)
- binding efficiency (percentage of vectors bound to the cell surface): 58.2%
